Data reported in patent publication US20250250362A1 (Chugai, published 2025).

Molecular target: T1, soluble human GPC3 (human, UniProt P51654 25-563)
T1 construct: range 25-563; whole entry named for human GPC3 (NP_001158089.1); also called glypican 3
Assay: SPR (Biacore)

T1 sequence (P51654 25-563 limits assumed): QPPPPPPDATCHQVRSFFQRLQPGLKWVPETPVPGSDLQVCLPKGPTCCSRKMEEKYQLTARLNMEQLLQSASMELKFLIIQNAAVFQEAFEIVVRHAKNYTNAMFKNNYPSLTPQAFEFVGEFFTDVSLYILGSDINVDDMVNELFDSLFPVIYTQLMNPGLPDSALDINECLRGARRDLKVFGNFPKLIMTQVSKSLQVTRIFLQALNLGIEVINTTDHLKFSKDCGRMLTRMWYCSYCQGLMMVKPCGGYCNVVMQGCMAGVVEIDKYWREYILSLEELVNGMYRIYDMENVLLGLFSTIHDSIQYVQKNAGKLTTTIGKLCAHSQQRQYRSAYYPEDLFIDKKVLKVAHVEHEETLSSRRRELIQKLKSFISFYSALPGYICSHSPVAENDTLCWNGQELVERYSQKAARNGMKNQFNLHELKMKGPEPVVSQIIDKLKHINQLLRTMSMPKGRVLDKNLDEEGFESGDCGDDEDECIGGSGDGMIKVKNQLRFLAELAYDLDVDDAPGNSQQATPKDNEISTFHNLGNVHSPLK

Kd: 4.54 nM
B1: H0610-G1dh/none-Hi-Kn010G3/L0129-k0 (antibody, V domains shown)
VH: QVQLVQSGAEVKKPGASVKVSCKASGYTFTDYEMHWIRQPPGQGLEWIGAIDGKTPDTAYSQKFKGRVTLTADKSTSTAYMELSSLTSEDTAVYYCTRFYSYTYWGQGTLVTVSS
VL: DIVMTQSPLSLPVTPGEPASISCRSSQSLVHSNRNTYLHWYQQKPGQAPRLLIYKVSNRRSGVPDRFSGSGSGTDFTLKISRVEAEDVGVYYCGQGTQVPYTFGQGTKLEIK
notes: one-arm
